In PMC10200060, “Inhibition of DAMP actions in the tumoral microenvironment using lactoferrin-glycyrrhizin conjugate for glioblastoma therapy” (Biomaterials Research, 2023):

System: U87MG cells
Assay: Cellular uptake of FITC-tagged Lf-GL (flow cytometry)
Type: cell-based, human
Settings: 2 h incubation, Lf pre-treatment 500 nM
Procedure: To verify cellular uptake of Lf-GL, U87MG cells (seeding density: 2.5 × 10^4 cells per well) in an 8 well Nunc™ Lab-Tek II chambered coverglass (Thermo Scientific) were treated with FITC-tagged Lf-GL (1 × 10^–6 M) for different time periods (0 to 18 h). After washing with PBS, cells were treated with lysotracker (75 × 10^–9 M) and incubated for 2 h. Then, cells were fixed with 4% paraformaldehyde followed by DAPI mounting. Confocal laser scanning microscopy (SP8 X, Leica, Germany) was used to observe intracellular fluorescence, and images were processed using LAS X software (Leica).
Fig. S11. Significant cellular uptake of Lf-GL in U87MG. (a) Flow cytometry to evaluate cellular uptake of FITC tagged-Lf-GL (1 µM) in U87MG for 2,6, and 18 h. The 2 h pre-treatment of Lf and Pitstop® were treated in the concentration of 500 nM and 75 nM, respectively. (b) Quantification of cellular uptake for 18 h. Data were expressed as mean ± S.E.M (n=2).

B1: Lf-GL-FITC: FITC-tagged Lf-GL for cellular uptake studies (conjugate, UniProt P02788 20-710, looked up)
Lactotransferrin: GRRRSVQWCAVSQPEATKCFQWQRNMRKVRGPPVSCIKRDSPIQCIQAIAENRADAVTLDGGFIYEAGLAPYKLRPVAAEVYGTERQPRTHYYAVAVVKKGGSFQLNELQGLKSCHTGLRRTAGWNVPIGTLRPFLNWTGPPEPIEAAVARFFSASCVPGADKGQFPNLCRLCAGTGENKCAFSSQEPYFSYSGAFKCLRDGAGDVAFIRESTVFEDLSDEAERDEYELLCPDNTRKPVDKFKDCHLARVPSHAVVARSVNGKEDAIWNLLRQAQEKFGKDKSPKFQLFGSPSGQKDLLFKDSAIGFSRVPPRIDSGLYLGSGYFTAIQNLRKSEEEVAARRARVVWCAVGEQELRKCNQWSGLSEGSVTCSSASTTEDCIALVLKGEADAMSLDGGYVYTAGKCGLVPVLAENYKSQQSSDPDPNCVDRPVEGYLAVAVVRRSDTSLTWNSVKGKKSCHTAVDRTAGWNIPMGLLFNQTGSCKFDEYFSQSCAPGSDPRSNLCALCIGDEQGENKCVPNSNERYYGYTGAFRCLAENAGDVAFVKDVTVLQNTDGNNNEAWAKDLKLADFALLCLDGKRKPVTEARSCHLAMAPNHAVVSRMDKVERLKQVLLHQQAKFGRNGSDCPDKFCLFQSETKNLLFNDNTECLARLHGKTTYEKYLGPQYVAGITNLKKCSTSPLLEACEFLRK
modifications: FITC label; GL conjugate
notes: FITC-tagged Lf-GL for cellular uptake studies
- Decrease of cellular internalization in the presence of Lf: about 17%
